According to article PMC3537844 (Nature structural & molecular biology, 2012):

Target: the molecule itself
Experiment: crystal structure

B1: Methylated MxiAC (318-686) (domain or fragment, Shigella flexneri, UniProt P0A1I5 318-686, looked up)
chain: VVEKEKSLSESDSSGYTGTFDIDNSHDSSLAMIENLDAISSETVPLILLFAENKINANDMEGLIERIRSQFFIDYGVRLPTILYRTSNELKVDDIVLLINEVRADSFNIYFDKVCITDENGDIDALGIPVVSTSYNERVISWVDVSYTENLTNIDAKIKSAQDEFYHQLSQALLNNINEIFGIQETKNMLDQFENRYPDLLKEVFRHVTIQRISEVLQRLLGENISVRNLKLIMESLALWAPREKDVITLVEHVRASLSRYICSKIAVSGEIKVVMLSGYIEDAIRKGIRQTSGGSFLNMDIEVSDEVMETLAHALRELRNAKKNFVLLVSVDIRRFVKRLIDNRFKSILVISYAEIDEAYTINVLKTI
modifications: reductive methylated by dimethylamine borane complex (DMAB) and formaldehyde
Question: For B1, which “stoichiometry N” value is on record?
Answer: The value was 9.
